In the PETadex activity labels:

B1: unnamed (protein)
chain: MPGYQGTQQNLQWLAPRLASWGFVVINVGTTTLSDDPASRGRQISAAGTQLLALGNATGNPVSGKTDGTLGAVGHSMGGGGVMAALRDDARFRAGVPTAPYYPNMNFSQVTDPTFFLTCQSDPVAHGNTYAAPWYTSMTQAEKLYIEVPGDHLCPMTGSGDKAKQGKWIVSFLSLWLRADTRFSPFLCGPVRDADKNNTSLVTRWMDTCQF
B2: unnamed (protein)
chain: MSSDKRLLFTLLHRTLLACALTFSAALPACGEEDPKEVTDSSSDDDDETPVDGDTTGDDDPEPMTMKDAGKSSVKDAGKPPPTPAVDAGSTAPKDKDSGTVGGIDAGPAKDAGTVVTPPTTAGDALVRGDAPTEKSASAKGPYAVKTYTSGYPDLPGYLDSTIHYPEGAQPPFAAVVIVPGFVSAQSSIQAWGPFFASHGIVTMTIGTNTPVDQPPMREAALLDALKTVKSENTREGSPLKDKLDLSRLAGMGWSMGGGGALLLGEHNPELKAVIALCPWNPGYSYAKIKMPTLFLAAQADTLAGGQSQGFYSSIPNSVPKILYEIAGADHWHNNDPANLQGAVGRYGLAWLKVFLEGDERYRDLLKVKGPSSSDWQSNVQ
B3: unnamed (protein)
chain: MTGSTTTGGRPAPPSPPSQSSTTCTTSAVASMPILTPSRVTSAHSVSSCSARNDAGGTCTALTPVVLWAVSAVTTAMPYPPAAATDFRSAWIPAPPPGSDPATDRTLGTCSGDETVGSVDGMGDIPSSVRTASGSTGVISAPGGRTPCREDTVAPVRETVSHRTRPCASPARLPMPRHGVRAEPVGAVIRQRGRTMQHSSIRSRAARRVTAALASLTVAVGLGAASGSVAQAADNPYERGPAPSESSIEATRGHYAVSERNVSRFVSGFGGGTIYYPTTTSDGTFGAVVVSPGYTGTESSIDWLGPRLASQGFVVLTMATNTIYDQPDSRARQLQAALDYLTGSSPVADRIDDDRLALMGHSMGGGGTLRAVDDNPDIKAAIPMTPWHTKKNWSTVTTPTLVFAAENDSVARHETHAEPFYNSFSDDLPKAYLELDGASHFAPNFSNTTIAKYSISWLKRFVDDDSR
B4: unnamed (protein)
chain: MGGSMKLRSTAMRRRFVVLVAVVMLVVAACDWRGPAPTEQSLVAARGTFTVGTLAVPTSAGFGGGTIYYPGNHDGPFGVISISPGFLGNQSSIGEWGPRLASHGFVVITINTTNGFIQPPQRSTEQRQALSYVVAQGGVSSSPIFGIVDGARRGVAGHSMGGGASLISVQSDPSIKVAVPFAPWNSSANFSAVTSAVLIFACQNDSIAPVGSHASPMYNSIPASTDKSYVSVAGGDHFCANNPTGASGTAGKWALSYFKKFIDGDTRYDPWVCGASKPATGPVLNEVRSSCPF
B5: unnamed (protein)
chain: MTVCKLRMFTAQKHPVTNKIFGGSSMSSRKQDLRLRQLLYCLLLSTALGGAVVHAQTAPATIAQEAFNNGFGIFTAAGSATANGQAVLAGTFGGTDGSITSSPISTQGFSNITVSFDRTTVGLDNGEAGVAEFSVAGGAFTAIESAQTASGRMSFALAASAANQAQLRLRFRVVASRANETYSVDNVLVQGVAAGAQPPPPDPQPTNNPFQRGPTPSAATLEAAQGPFAVATTTVPNPSGFGAGTIYFPTSTTEGPFAAVSIAPGFSERQANVNWWGPRLASNGFVVVVIDTNSTSDAPASRATQLVAALRQVVTLSGTSGSPVFNKVDGNRLGVMGHSLGGGGTLIAAQNNPTLKAAIPFAPFNNDTNFSSVVVPTLIIACENDNVAPVADHASPFYNSFAASLDKAFLEIAGGSHSCANSGNNNMPILGKYGVSWMKLFMDNDTRYSPFLCGAPHQADLSGTQISEYRESCPY
B6: unnamed (protein)
chain: MKTTISPIKGLAIAVAIAMATVAQPALSQTSPPTSASLNATSGPLSVSTASVLLPVGFGGGTIYYPTVAGQYGVIAISPGFTATQSSIAWLGRRIATHGFVVITMDTNTTLDQPDSRATQLMAALRYVLNSSGTAVRSRVDTTRLAVAGHSMGGGGSLIAARDNPTLKASYPMTPWNLSTNFSTVRVPTMIIGADGDTIAPVATHARPFYASLPSTTFKAYGELNNGTHFSPNATSTPIGRYAVAWMKRFVDGDARYSPFLCGAEHTSYATALVFERYNQNCPY
B7: unnamed (protein)
chain: MRTAKDFARGNPLARLCILLALAVFPALSHAQTVIFQEPFNVGIGSFTADGTVNGGGTGASMHGRIQGYSTITSPAINTTGFTNLQLAWTQMCLNSDAGEACQLWYSVNNITWDLVYSTPFAPFNSPASIALPAAAAGQSQLRLRFVRLANSFEEVYDVDNISLTGTAGGGGTTSGSTSGGTSGGGGTPCQNGPAPSATSVQGDGPFTVGTYVVPNPSGYKAGTIYYPTNTVSGACTKFAGIVTMPGYQGTQNNLSWLGPRLASNGFVVINVDTNTLSDSPDQRGAEILSALNQLVSLSNASGNPISGKVDSAKLGAMGHSMGGGGTLVAARNAMIKAAIPMAPYHNTTTNFPDVHAPTLVVTCQGDPSAPAATYGRPMYNSLTTEKAYLELTTTDGHLCVMTGYGNKAVQSRYMTSWMKRWLDGDTRYTQFLCGTTSGSNGVTTWADTCPY
B8: unnamed (protein)
chain: MKIDSIIKFLCTALLVTFSLGVYAGGGGGGDEPSNDGQLPAPDTCTSNCGYANGANPTLSSLQASQGQYSVGTVNVSSSVNGFGGGTIYYPTNLSGELAAIAIAPGFTNTQSAVQWWGPVLASRGFVVVTINTNGRFDFPSSRSRQLDSALNYLIYLGEQSSGAISGKVDKNRLATMGFSMGGGGALESASRNRLSATVPLAPWYSGSNPFNQINVPSMIMACENDGTAGVNTHASPFYNRIPGSTDKVYLELNNGSHNCATGQDSNYRTTISTYGVSWLKRFLDKDSRYNQFLCGPNHVANARISEFRDTCNF
B9: unnamed (protein)
chain: MTPTLCRPLAAVLTSAAFAALTAVSASALAQTPQEPTEASLNATAGPFSVATESVRAPRGFGGGTIYYPTAAGRYGVVAISPGFTATQSSIAWLGRRMASHGLVVITMNTNSTLDQPASRANQLMAALNHVVSASGAAVQSRADGTRRAVAGHSMGGGGALIAARDNATLRAALPLTPWNTTTDFSGVRVPTLIVGADGDGVASVTRHARPFYASLPNATAKAYGELNSASHFTPNSTNTPIGRYGVTWMKRFVDADTRYSPFLCGAAHLAYATPAVFDRYQNNCPY
B10: unnamed (protein)
chain: MEISNTRQLAVRSRARSRAETGGRKWTIGLGLLLLAAVAHAQTNPYAKGPDPTSSLLNATRGPFSITSTSVSRFVSGFGGGTIYYPTTSGSYAAIAISPGFTATQSSIAWLGQRIASHGFVAITINTNSVYDQPASRATQLMAALRYLTNSSTSAVRSRVDANRLGVAGHSMGGGGALIAARDNPSLKASVPLTAWSTSKNFSTVQVPTLVVGAENDSVAPVSSHSIPFYTSLSSFLEKAYAELNNASHFAPNSTNTPIGRYSVAWVKRFMDNDTRYSPFLCGAPHQSYATSTVFSEYRSTCPY
B11: unnamed (protein)
chain: MPKYPFYSQWIVAIGALVFSINASAVTLDEVAATNKLTIKEQSTKIVSTPIASAVAITSPVSTPAVPSNCIADSIITAANLSDTRDKGPFSVAKKAVPRQLANGFGGGTIYYPTNAGGCGLLGGIAVIPGYVSYESSIKWWGPRLASWGFVVITIDTNSIYDDPDSRAAQLSAALDHMLRDNTVGAQIDSTRLGAIGWSMGGGGALQLATKRQTVRAIIPQTPYHDKDYGEMNTPALFITCQNDRIASNKKYSSRFYDKATGAKMKIEIKNGSHFCPSYRFNEILLSKPGIAWMHRYINGDTRFDQFLCSNDNYGNNPRISAYDYKLS
B12: unnamed (protein)
chain: MIRFKTGALTNTISLCLVVALGCGGGETPETSGPPPATQTNPTAQAGATATKPTGTAGAAAPTNTGRPMMTTPPTTTTPTMTTPATAGSAAPAAGSGGTPAATGAGGAPAAEAGSGAAGSAATAGSGAEDEAAAGKGGTEATGDKNHWIRGDDPPADLSGARPGPYKVERYTDGYRNGPAYADSTINYPVDAEPPFALVVVVPGFVSPQSSIASWGPFLASHGIVTMTIGTNLPTDLPETRKDALLDAMQSLKEENTREGSPLKGKLDTSYTATMGWSMGGGGTLLVANENPELKATISLCGWNPGYPYSKIKAPALMFASLGDPLAGGQSQGFYRSIPDETPKMLIEVGAGDHFVANNPASTSGVIGRYGLAWLKVYLEGDERYRKFLLEKPAVP
B13: unnamed (protein)
chain: MNEVEPVNKSFLKKLSIGTGVLLVSMNALSWTPSPAPTPDPTPDPTPCQGDCDFTRGPNPTVSSVESSTGPYSVRTQSIASSVSGFGGGTIHYPTNTSGKMGAIAIAPGFLAPESSIIWWGPRLASHGFVVITIATNSVFDQPSSRGTQIGRALDYVISQSNASNSAISGMVDSTRVGAMGWSMGGGGALRLASGDRLSAAIPLAPWHQGGNSFNQLETPTLIIACENDNVAPVDRHASAFYNAIPSTTDKALLEIDGGAHSCANGDGSNDAVLGKYGISWMKRFIDNDLRYDQFLCGPNHAANSAVSEYRETCDY
B14: unnamed (protein)
chain: MTTIIAKLAIAASAAVLATAAFAQQQGPEQTAAQLEAGKGPFTVATAKIATPSGYGGGTVYYPTNASGKVGLIVVAPGFTETQSAMNMWGPILASNGFAVINIDTKSTLDQPPARATQMMAALKQVSDLSKTTASPYYNKIDVTRQAVMGHSMGGGGTLVAATANPALKAAIPAAPWSLATKNFPTLAVPTMIFACQSDVIAPVSGHADRFWASFNKQLPSAFAEYAGAGHQCPTSQGGADRKLVFSKLGIAWFKRFVDGDTRYTQFITNDSRLSRFLTNGSF

The proteins below were run on BHET. Settings: 120 h.

Plate clearing, not clears the plate:
B1
B2
B3
B4
B5
B6
B7
B8
B9
B10
B11
B12
B13
B14
